For the assay, the target named is human steroid 21-hydroxylase (21-OH), 125I-labelled (human) (UniProt P08686). Briefly: 125I-21-OH + protein A; competitor: autoantibodies in pooled patient sera; irrelevant control Fab.

Bounds are passed on as bounds.

Here are results for one substance from patent US6342394.

UniProt P08686, sequence (P08686 whole entry): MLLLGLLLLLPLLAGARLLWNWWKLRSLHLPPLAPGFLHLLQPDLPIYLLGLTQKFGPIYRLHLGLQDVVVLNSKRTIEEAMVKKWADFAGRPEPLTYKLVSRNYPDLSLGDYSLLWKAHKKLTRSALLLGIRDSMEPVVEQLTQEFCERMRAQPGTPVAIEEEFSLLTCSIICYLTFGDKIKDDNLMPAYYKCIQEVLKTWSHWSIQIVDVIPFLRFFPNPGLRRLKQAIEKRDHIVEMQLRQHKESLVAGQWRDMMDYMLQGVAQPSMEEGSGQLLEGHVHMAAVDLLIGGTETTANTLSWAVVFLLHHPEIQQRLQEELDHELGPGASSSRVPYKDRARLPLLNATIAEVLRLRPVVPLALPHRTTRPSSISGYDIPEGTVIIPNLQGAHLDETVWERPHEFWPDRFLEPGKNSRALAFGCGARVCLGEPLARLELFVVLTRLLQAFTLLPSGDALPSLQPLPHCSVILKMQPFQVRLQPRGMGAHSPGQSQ

As for “control Fab from a TSH receptor (TSHR) mouse monoclonal antibody”, the % inhibition of 125I-21-hydroxylase binding was less than 15%.
